Patent publication US20240034801A1 (published 2024)

Columns and labels:
[1] = target: recombinant human PD-L1 (Sino Biological Inc., catalog number 100 84-H08H) (human, UniProt Q9NZQ7 19-239); assay: ELISA; Fig. 8A
[2] = target: T1, human PD-L1-Fc (ACROBiosystems, catalog number PD1-H5258) (human, UniProt Q9NZQ7 19-238); assay: competition ELISA; blocking PD-L1/CD80
[3] = target: T1, human PD-L1-Fc (ACROBiosystems, catalog …); assay: competition ELISA; blocking PD-L1/PD-1
[4] = target: recombinant human 4-1BB (Sino Biological Inc., catalog number 10041-H08H) (human, UniProt Q07011 24-186); assay: ELISA; Fig. 8B
Chain of recombinant human 4-1BB (Sino Biological Inc., catalog number 10041-H08H) (Q07011 24-186): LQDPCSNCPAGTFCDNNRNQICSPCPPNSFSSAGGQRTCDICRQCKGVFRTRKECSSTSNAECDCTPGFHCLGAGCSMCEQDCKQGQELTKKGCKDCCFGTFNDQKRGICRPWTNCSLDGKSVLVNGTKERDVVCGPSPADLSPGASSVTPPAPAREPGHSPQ

[5] = target: 4-1BB on GS-H2/4-1BB cells (purchased from GenScript) (UniProt Q07011 24-255); assay: FACS binding; Fig. 8C, GS-H2/4-1BB cells
Chain of 4-1BB on GS-H2/4-1BB cells (purchased from GenScript) (Q07011 24-255): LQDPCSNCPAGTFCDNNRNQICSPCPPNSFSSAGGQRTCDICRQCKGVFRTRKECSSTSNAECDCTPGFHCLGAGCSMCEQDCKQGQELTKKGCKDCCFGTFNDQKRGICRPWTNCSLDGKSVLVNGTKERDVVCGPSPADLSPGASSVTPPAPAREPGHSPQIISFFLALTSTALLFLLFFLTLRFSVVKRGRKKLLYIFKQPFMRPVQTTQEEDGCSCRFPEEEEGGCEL

T1 sequence (Q9NZQ7 19-238): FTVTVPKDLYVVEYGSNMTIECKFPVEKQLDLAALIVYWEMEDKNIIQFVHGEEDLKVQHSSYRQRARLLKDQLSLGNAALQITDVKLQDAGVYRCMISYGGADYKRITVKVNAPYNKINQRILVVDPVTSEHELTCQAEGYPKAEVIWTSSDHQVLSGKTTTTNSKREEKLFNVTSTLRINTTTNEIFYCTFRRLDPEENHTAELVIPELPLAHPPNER
Chain of recombinant human PD-L1 (Sino Biological Inc., catalog number 100 84-H08H) (Q9NZQ7 19-239): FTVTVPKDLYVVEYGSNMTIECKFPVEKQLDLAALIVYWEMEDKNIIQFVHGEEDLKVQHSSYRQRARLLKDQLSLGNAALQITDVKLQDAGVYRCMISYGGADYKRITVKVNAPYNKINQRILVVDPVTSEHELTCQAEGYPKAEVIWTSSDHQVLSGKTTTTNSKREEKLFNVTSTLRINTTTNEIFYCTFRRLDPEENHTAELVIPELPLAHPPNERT

EC50 [1] [nM]	EC50 [2] [nM]	EC50 [3] [nM]	EC50 [4] [nM]	EC50 [5] [nM]	Binder
0.102	0.656	0.884	–	–	Anti-PD-L1 mAb (antibody, V domains shown) VH: EVQLVQSGAEVKKPGSSVKVSCKASGFNIEDTYIHWVRQAPGQGLEWMGRIDPANANTKYDPKFQGRVTITADTSTNTAYMELSSLRSEDTAVYYCGRGLGAWFAYWGQGTLVTVSS VL: DIQMTQSPSSLSASVGDRVTITCKASQDVHTAVAWIQQKPGKSPKLLIYSASNRYTGVPSRFSGSGSGTDFTFTISSLQPEDIATYYCQQHYITPLTFGQGTKLEIK
–	–	–	0.045	1.28	Anti-4-1BB mAb (antibody, V domains shown) VH: QVQLVQSGAEVKKPGSSVKVSCKASGYTFTSYWINWVRQAPGQGLEWMGNIYPSDSYTNYNQKFKDRVTITADKSTSTAYMELSSLRSEDTAVYYCARLYYGSSPFDYWGQGTTVTVSS VL: DIQMTQSPSSLSASVGDRVTITCRASQDISNYLNWYQQKPGKVPKLLIYHTSRLHSGVPSRFSGSGSGTDFTLTISSLQPEDVATYYCQQGHTLPRTFGGGTKVEIK
0.345	1.72	4.86	4.02	0.396	anti-PD-L1/anti-4-1BB heterodimeric antibody BH3120h (bispecific antibody) heavy 1: not shown light 1: DIQMTQSPSSLSASVGDRVTITCKASQDVHTAVAWIQQKPGKSPKLLIYSASNRYTGVPSRFSGSGSGTDFTFTISSLQPEDIATYYCQQHYITPLTFGQGTKLEIKRTVAAPSVFIFPPSDEQLKSGTASVVCLLNNFYPREAKVQWKVDNALQSGNSQESVTEQDSKDSTYSLSSTLTLSKADYEKHKVYACEVTHQGLSSPVTKSFNRGEC heavy 2: QVQLVQSGAEVKKPGSSVKVSCKASGYTFTSYWINWVRQAPGQGLEWMGNIYPSDSYTNYNQKFKDRVTITADKSTSTAYMELSSLRSEDTAVYYCARLYYGSSPFDYWGQGTTVTVSSASTKGPSVFPLAPSSKSTSGGTAALGCLVKDYFPEPVTVSWNSGALTSGVHTFPAVLQSSGLYSLSSVVTVPSSSLGTQTYICNVNHKPSNTKVDKKVEPKSCDKTHTCPPCPAPELLGGPSVFLFPPKPKDTLMISRTPEVTCVVVDVSHEDPEVKFNWYVDGVEVHNAKTKPREEQYASTYRVVSVLTVLHQDWLNGKEYKCKVSNKALPAPIEKTISKAKGQPREPQVYTEPPSRDELTKNQVSLTCLVKGFYPSDIAVEWESNGQPENNYKTTPPVLDSDGSFFLLSVLTVDKSRWQQGNVFSCSVMHEALHNHYTQKSLSLSPGK light 2: not shown
